Columns and labels:
TtSlyD-FKBP-Her3 = biological target: T1, TtSlyD-FKBP-Her3; test: SPR Biacore 4000, antibody captured, analyte 150 nM, 25 C
T1 construct: N-terminal Met present or not; also called thermo SlyD-Her3; ttSlyD-Her3
T1 chain: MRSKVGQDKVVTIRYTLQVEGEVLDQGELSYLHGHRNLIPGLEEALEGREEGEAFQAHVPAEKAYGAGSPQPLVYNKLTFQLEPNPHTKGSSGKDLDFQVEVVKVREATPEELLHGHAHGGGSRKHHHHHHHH
Method: (§1) Prior to their application the hybridoma culture supernatants were diluted 1:5 in instrument buffer. The diluted mixtures were injected at a flow rate of 30 μl/min for 2 min. The antibody capture level (CL) in response units was monitored. Immediately thereafter the respective antigen was injected at a flow rate of 30 μl/min for 3 min association time. Thereafter, the antibody-antigen complex dissociation signal was recorded for 5 min. The sensor was regenerated by injecting a 10 mM glycine-HCl solution (pH 1.7) for 2 min at a flow rate of 30 μl/min. The recorded signal shortly before the end of the injection of the antigen was denoted as binding late (BL) in response units. The recorded signal shortly before the end of the recording of the dissociation is denoted as stability late (SL) in response units. The dissociation rate constants were determined calculated The antibody-antigen complex stability in minutes was calculated with the following formula: ln(2)/60*kd. The Molar Ratio was calculated with the formula: MW (antibody)/MW(antigen)*BL (antigen)/CL (antibody).
(§2) Binding Late (BL) represents the response units at the end of the analyte injection. The amount of antibody captured as a ligand on the sensor surface is measured as Capture Level (CL) in response units. Together with the information of the molecular weights of the tested analytes, the antibody and the analyte in solution, the Molar Ratio can be calculated. […] Then, the Molar Ratio is also an indicator for the valence mode of analyte binding. The maximum valence can be MR=2 for an antibody binding two analytes, one with each Fab valence.

[1] = biological target: T2, human HER3 Extracellular Domain (ECD) (human, UniProt P21860 20-643); test: as above
T2 construct: human recombinant, 68 kDa; 'closed' conformation without ligand; also called Her3 ECD; Her-3 ECD
Method: as §1, §2

[2] = biological target: T3, human HER2 (full length, on cells) (human, UniProt P04626 23-1255); test: IHC (Ventana Benchmark XT) on formalin-fixed, paraffin-embedded HEK293 cells transiently transfected with full length HER2
T3 construct: HEK293 cells transfected with full length HER2 (IHC); MCF-7 cells (co-immunoprecipitation)
Method: All selected clones were tested for reactivity and specificity in IHC. […] After an additional fixation in formalin overnight the Agarose blocks were embedded in paraffin. Untransfected HEK293 cells were used as negative controls and treated accordingly to the transfected cells. After paraffin embedding 3 μm thin sections were prepared using a microtome. The sections were mounted on glass microscopy slides and dried for 2 h. All further steps of the immunohistochemical staining procedure were carried out using a Ventana Benchmark XT. The slides were dewaxed and antigen retrieval was performed by applying heat for 1 hour. For antigen retrieval the Ventana buffer CC1 was used. The antibodies were used at a concentration of 1 μg/ml. For the detection of bound antibody the Ventana UltraView detection kit was used.

HER3 ECD-HRG complex = biological target: T4, HER3 ECD-HRG complex (human, UniProt P21860 20-643); test: SPR Biacore T200, antibody captured, 25 C
T4 construct: HER3 ECD preincubated with a 3- to 6-fold molar excess of Heregulin ('open' conformation); biotinylated Her3-ECD in the ribosome display; also called HER3-ECD/HRG1β
Method: (§3) A Biacore T200 instrument (GE Healthcare) was mounted with a CMS series sensor. The sensor was normalized in HBS-ET buffer (10 mM HEPES pH 7.4, 150 mM NaCl, 3 mM EDTA, 0.05% w/v Tween 20) according to the manufacturer's instructions. The sample buffer was the system buffer supplemented with 1 mg/ml CMD (Carboxymethyldextran, Sigma #86524). The system operated at 25° C. 6500 RU RAM-Fcγ (relative units of Fcγ-fragment RamIgG, GE Healthcare) were immobilized according to the manufacturer's instructions using amine coupling EDC/NHS chemistry on all four flow cells. The sensor was deactivated using 1M ethanolamine. […] Concentration dependent kinetics were measured. […] All analytes were injected for 5 min association time and 10 min dissociation time at 100 μl/min flow rate. The sensor capture system was regenerated by a 3 min injection at 10 μl/min of 10 mM glycine pH 1.7. Where possible kinetic data was evaluated using the Biacore T200 evaluation software.

[3] = biological target: T5, human HER4 Extracellular Domain (ECD) (human, UniProt Q15303 26-651); test: SPR Biacore T200, antibody captured, 25 C
T5 construct: also called Her4 ECD; HER4-ECD
T5 sequence: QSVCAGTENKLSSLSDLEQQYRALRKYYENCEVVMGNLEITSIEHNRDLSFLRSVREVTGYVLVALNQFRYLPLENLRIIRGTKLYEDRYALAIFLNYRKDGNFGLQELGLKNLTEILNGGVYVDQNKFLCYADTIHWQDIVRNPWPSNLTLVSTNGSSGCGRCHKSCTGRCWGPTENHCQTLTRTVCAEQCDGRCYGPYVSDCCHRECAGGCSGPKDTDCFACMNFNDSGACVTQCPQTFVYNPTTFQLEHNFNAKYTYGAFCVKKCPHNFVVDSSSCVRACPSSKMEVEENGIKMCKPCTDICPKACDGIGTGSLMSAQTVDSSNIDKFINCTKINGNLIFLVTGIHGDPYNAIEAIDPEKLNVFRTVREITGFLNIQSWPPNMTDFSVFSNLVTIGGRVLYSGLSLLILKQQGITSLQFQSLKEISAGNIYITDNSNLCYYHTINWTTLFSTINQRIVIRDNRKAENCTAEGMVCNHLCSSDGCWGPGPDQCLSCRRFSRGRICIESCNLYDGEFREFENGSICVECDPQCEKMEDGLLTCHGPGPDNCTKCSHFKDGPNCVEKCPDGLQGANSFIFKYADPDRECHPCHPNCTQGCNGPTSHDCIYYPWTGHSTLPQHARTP
Method: as §3

[4] = biological target: T2, human HER3 Extracellular Domain (ECD); test: SPR Biacore T200, antibody captured, 25 C
Method: as §3

[5] = biological target: T6, human HER1 Extracellular Domain (ECD) (human, UniProt P00533 25-645); test: SPR Biacore T200, antibody captured, 25 C
T6 construct: also called Her1 ECD; HER1-ECD
Method: as §3

B1: anti-HER3/HER4 antibody M-05-74 (antibody, V domains shown)
VH: QVQLQQSGAELAKPGASVKMSCKTSGYTLTDYWIHWVKQRPGQGLEWIGYINPYTGYTESNQKFKDKATLTADKSSNTAYIQLSSLTSEDSAVYYCARPYYYGDYWGQGTTLTVSS
VL: QIVLTQSPAIMSASPGERVTITCSASSSVSYMHWFQQKPGTSPKLLIYSTSNLASGVPARFSGSGSGTSYSLTISRMEAEDAATYYCQQRSSYPFTFGSGTKLEIK
notes: murine monoclonal IgG from hybridoma (supernatant or purified), bivalent; also called M-074; M-5-74
TtSlyD-FKBP-Her3
  MR (Molar Ratio): 1.1
  koff: 0.00012 s⁻¹
[1]
  MR (Molar Ratio): 0.5
  koff: < 1e-05 s⁻¹
[2]
  binding result: no binding (tested: 1 µg/ml)
HER3 ECD-HRG complex
  Kd: 2.8 nM
  MR (Molar Ratio): 0.8
  koff: 0.00029 s⁻¹
  kon: 100000 M⁻¹ s⁻¹
[3]
  Kd: 51 nM
  MR (Molar Ratio): 0.1
  koff: 0.00082 s⁻¹
  kon: 16000 M⁻¹ s⁻¹
[4]
  Kd: 1.1 nM
  MR (Molar Ratio): 0.1
  koff: 0.00011 s⁻¹
  kon: 96000 M⁻¹ s⁻¹
[5]
  binding result: no binding (tested: up to 90 nM)

Reference: patent publication US20170233490A1 (Hoffmann-La Roche, published 2017)
